Residues, ends and D or L forms follow the SMILES beside them. No end group written: not given here. *: point of attachment. Palmitoyl = CCCCCCCCCCCCCCCC(=O)*
Key:
acetylcholine receptor [1] = biological target: T1, acetylcholine receptor (Homo sapiens, UniProt P02708); test: SPR binding affinity (RU) of optimized 5mer/6mer/7mer peptides, Examples 6-7; settings: SPR; for Binding affinity, relative value to the RRQRR sequence: XRRQRR-6mer and RRQRRX-6mer; for Binding affinity, values relative to the RRGVRR sequence: XRRGVRR-7mer and RRGVRRX-7mer; for Binding affinity (RU): peptides at 10 μM; for Binding affinity: peptides tested at 10 μM
Summary of the method: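 Synthetic 5mer and 6mer peptides, built from frequent or infrequent amino-acid combinations, were tested at 10 μM for binding to the human acetylcholine receptor by surface plasmon resonance. Binding is reported in response units (RU).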

[2] = biological target: T2, Acetylcholine receptor-overexpressing TE671 cells (Homo sapiens, UniProt P02708); test: Calcium imaging (Fura-2-AM) of nicotine response, acetylcholine receptor inhibition; type: cell-based; settings: for inhibition at 1 µM: TE-671; for concentration at which acetylcholine receptors were inhibited: TE671 cells, nicotine 400 uM, calcium imaging
T2 construct: endogenous in cells; host or cells: TE671 cells
Description: Acetylcholine receptor-overexpressing TE671 cells were cultured at 37° C. in DMEM medium supplemented with 10% FBS and 1% P/S under 5% CO2. After the TE671 cells were sufficiently grown for 4 days, the cells were detached using trypsin and the cell culture was plated in an amount of 1 ml at a density of 2×10^4 cells/well into 12-well cell culture plate with an 18 mm cover-slip lined therein, and cultured for 4 days.
The cover-slip on which the cells had grown was transferred to a fresh 12-well cell culture plate, and 997 μl of HBSS buffer and 3 μl of Fura-2-AM were added and gently mixed, followed by incubation at 37° C., 5% CO2 for 15 minutes. After incubation, the remaining Fura-2-AM was removed by washing 3-4 times with 1 ml of HBSS buffer, and an additional 1 ml was added. The cover-slip with the grown cells was placed in a chamber, and 500 μl of HBSS buffer was dispensed. The final concentration of nicotine was adjusted to 400 µM to observe the calcium imaging reaction. Then, while keeping the nicotine concentration fixed, the concentration of the sample was adjusted to find the inhibiting concentration.
The inhibitory ability of the Palmitate-6mer-1-43 and Palmitate-5mer-73 peptides on the acetylcholine receptor was examined in the same manner as in Example 6. Additionally, the inhibitory ability (IC50) of the optimized short peptides and the palmitate-modified peptides according to the present disclosure against acetylcholine receptor was compared with Synake and is depicted in FIG. 16.

[3] = tested on: dermal fibroblast cells isolated from human skin; settings: 100 nM to 100 μM, 24 hours
Description: The optimized shortened peptides according to the present disclosure were assayed for cytotoxicity. In this regard, the cytotoxicity was assessed by the MTT [(3-(4,5-dimethylthiazol-2-yl)-2,5-diphenyltetrazolium bromide] method using dermal fibroblast cells isolated from human skin. The pre-cultured cells were seeded at a concentration of 1×10^5 cells/mL in a 24-well plate and cultured for 18 hours. Subsequently, the medium was removed and the diluted sample was added to the medium free of FBS and incubated for 24 hours, after which the medium was removed and MTT solution was added at a concentration of 1 μg/mL and reacted for 3 hours. Unreacted MTT was removed, and DMSO 100 μL was added to dissolve the formed formazan, and the absorbance at 540 nm was read on an ELISA reader.

acetylcholine receptor [4] = biological target: T1, acetylcholine receptor; test: SPR (Biacore) affinity of shortened Espep2 peptides, Examples 1-2; type: binding; settings: for higher affinity compared to Synake: SPR, FIG. 1
Description: To construct an optimized shortened library from the previous Espep2 peptide, assessment was made of the affinity of peptides having sequences sequentially removed from the N- and C-terminals. Initially, surface plasmon resonance (SPR) experiments were conducted using a biosensor chip (Biacore3000, Biacore AB, Uppsala, Sweden). Selected acetylcholine receptor proteins were immobilized on a CM5 chip (Biacore) using EDC/NHS and observed for association and dissociation for up to 500 seconds. The observation conditions were set forth as follows: running buffer 20 mM Tris (pH 7.4), rate 30 ul/min, concentration 20 μM (peptide), and the results are depicted in FIG. 1.
To identify the crucial sequences in the shortened peptides, alanine scanning was conducted. Wild-type (WT) Espep2-6mer (RKSLLR) and Espep2-5mer (KSLLR) peptides were synthesized with each amino acid sequentially substituted with alanine (Ala, A), and their affinity was measured using the same method as in Example 1. The measurements are depicted in FIG. 2 after normalization to WT.
Moreover, among the six amino acids in the RKSLLR sequence, R residues at the N and C terminals are crucial.

acetylcholine receptor [5] = biological target: T1, acetylcholine receptor; test: as above; type: binding; settings: FIG. 3

T1 sequence (P02708 21-457): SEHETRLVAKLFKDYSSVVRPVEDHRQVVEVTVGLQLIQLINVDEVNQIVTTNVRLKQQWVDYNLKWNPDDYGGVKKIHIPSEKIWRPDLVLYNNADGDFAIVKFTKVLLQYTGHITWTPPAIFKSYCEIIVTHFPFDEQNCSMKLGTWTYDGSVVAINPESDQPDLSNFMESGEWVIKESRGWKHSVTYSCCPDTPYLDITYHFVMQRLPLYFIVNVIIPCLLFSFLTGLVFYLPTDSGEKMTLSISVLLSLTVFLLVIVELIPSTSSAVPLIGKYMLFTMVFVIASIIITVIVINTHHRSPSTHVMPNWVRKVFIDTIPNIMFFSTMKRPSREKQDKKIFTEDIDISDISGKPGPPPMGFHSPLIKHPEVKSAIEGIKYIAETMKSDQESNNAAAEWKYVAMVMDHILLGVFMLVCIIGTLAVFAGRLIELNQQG
T2 sequence (P07510 23-517): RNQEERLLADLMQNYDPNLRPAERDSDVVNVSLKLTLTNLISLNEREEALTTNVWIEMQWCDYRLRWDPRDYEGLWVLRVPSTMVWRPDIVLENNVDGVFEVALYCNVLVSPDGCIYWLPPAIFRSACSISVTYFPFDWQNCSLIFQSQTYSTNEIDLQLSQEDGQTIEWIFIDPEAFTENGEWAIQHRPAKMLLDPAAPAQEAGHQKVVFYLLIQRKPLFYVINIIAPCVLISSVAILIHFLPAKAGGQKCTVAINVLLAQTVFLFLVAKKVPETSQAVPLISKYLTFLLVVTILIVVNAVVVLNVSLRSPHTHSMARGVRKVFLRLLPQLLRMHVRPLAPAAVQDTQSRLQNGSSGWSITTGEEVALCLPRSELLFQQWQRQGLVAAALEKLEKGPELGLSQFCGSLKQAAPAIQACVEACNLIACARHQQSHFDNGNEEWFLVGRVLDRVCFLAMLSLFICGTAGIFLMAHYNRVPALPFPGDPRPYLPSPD
T2 sequence (P11230 24-501, further chain): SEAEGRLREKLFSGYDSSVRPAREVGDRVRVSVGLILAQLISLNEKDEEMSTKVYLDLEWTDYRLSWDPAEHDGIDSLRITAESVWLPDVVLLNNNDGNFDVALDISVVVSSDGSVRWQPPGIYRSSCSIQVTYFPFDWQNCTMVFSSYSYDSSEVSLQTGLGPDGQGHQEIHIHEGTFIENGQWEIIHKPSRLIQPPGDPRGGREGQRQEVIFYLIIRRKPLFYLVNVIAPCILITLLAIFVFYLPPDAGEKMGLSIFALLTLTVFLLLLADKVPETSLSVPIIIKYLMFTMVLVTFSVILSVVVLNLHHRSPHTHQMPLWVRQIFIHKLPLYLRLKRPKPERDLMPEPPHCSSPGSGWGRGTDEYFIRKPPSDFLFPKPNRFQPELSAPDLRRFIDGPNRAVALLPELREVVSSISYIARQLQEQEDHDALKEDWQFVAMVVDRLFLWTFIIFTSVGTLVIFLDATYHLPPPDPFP
T2 sequence (Q07001 22-517, further chain): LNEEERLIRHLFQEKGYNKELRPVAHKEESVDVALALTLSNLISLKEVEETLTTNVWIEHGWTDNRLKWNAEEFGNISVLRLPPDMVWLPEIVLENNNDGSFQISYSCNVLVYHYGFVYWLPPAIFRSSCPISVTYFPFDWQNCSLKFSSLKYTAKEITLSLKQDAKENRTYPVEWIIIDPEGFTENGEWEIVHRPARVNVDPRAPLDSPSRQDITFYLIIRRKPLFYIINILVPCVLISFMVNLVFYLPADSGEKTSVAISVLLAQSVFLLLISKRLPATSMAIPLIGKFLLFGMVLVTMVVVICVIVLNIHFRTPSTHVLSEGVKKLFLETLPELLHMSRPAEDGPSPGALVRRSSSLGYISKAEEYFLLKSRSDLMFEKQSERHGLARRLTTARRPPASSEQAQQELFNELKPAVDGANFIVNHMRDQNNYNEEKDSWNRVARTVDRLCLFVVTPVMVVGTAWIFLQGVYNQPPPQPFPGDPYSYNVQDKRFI
T2 sequence (P02708 21-457): as the sequence (P02708 21-457) above

Compound	Binding affinity, values relative to the RRGVRR sequence (acetylcholine receptor [1])	other results
3633 (RRQRRY) [compound 3633]		Binding affinity, relative value to the RRQRR sequence (acetylcholine receptor [1]): 105
3634 (RRQRRN) [compound 3634]		Binding affinity, relative value to the RRQRR sequence (acetylcholine receptor [1]): 109
3635 (RRQRRQ) [compound 3635]		Binding affinity, relative value to the RRQRR sequence (acetylcholine receptor [1]): 101
3636 (RRQRRK) [compound 3636]		Binding affinity, relative value to the RRQRR sequence (acetylcholine receptor [1]): 175
3637 (RRQRRR) [compound 3637]		Binding affinity, relative value to the RRQRR sequence (acetylcholine receptor [1]): 192
3638 (RRQRRH) [compound 3638]		Binding affinity, relative value to the RRQRR sequence (acetylcholine receptor [1]): 158
3639 (RRQRRD) [compound 3639]		Binding affinity, relative value to the RRQRR sequence (acetylcholine receptor [1]): 65
3640 (RRQRRE) [compound 3640]		Binding affinity, relative value to the RRQRR sequence (acetylcholine receptor [1]): 37
3641 (GRRGVRR) [compound 3641]	137	
3642 (ARRGVRR) [compound 3642]	134	
3643 (VRRGVRR) [compound 3643]	140	
3644 (CRRGVRR) [compound 3644]	128	
3645 (PRRGVRR) [compound 3645]	138	
3646 (LRRGVRR) [compound 3646]	149	
3647 (IRRGVRR) [compound 3647]	126	
3648 (MRRGVRR) [compound 3648]	124	
3649 (WRRGVRR) [compound 3649]	134	
3650 (FRRGVRR) [compound 3650]	139	
3651 (SRRGVRR) [compound 3651]	117	
3652 (TRRGVRR) [compound 3652]	105	

Compound	Binding affinity, values relative to the RRGVRR sequence (acetylcholine receptor [1])	other results
3653 (YRRGVRR) [compound 3653]	145	
3654 (NRRGVRR) [compound 3654]	109	
3655 (QRRGVRR) [compound 3655]	101	
3656 (KRRGVRR) [compound 3656]	169	
3657 (RRRGVRR) [compound 3657]	185	
3658 (HRRGVRR) [compound 3658]	160	
3659 (DRRGVRR) [compound 3659]	159	
3660 (ERRGVRR) [compound 3660]	43	
3661 (RRGVRRG) [compound 3661]	105	
3662 (RRGVRRA) [compound 3662]	118	
3663 (RRGVRRV) [compound 3663]	149	
3664 (RRGVRRC) [compound 3664]	131	
3665 (RRGVRRP) [compound 3665]	142	
3666 (RRGVRRL) [compound 3666]	146	
3667 (RRGVRRI) [compound 3667]	138	
3668 (RRGVRRM) [compound 3668]	127	
3669 (RRGVRRW) [compound 3669]	134	
3670 (RRGVRRF) [compound 3670]	137	
3671 (RRGVRRS) [compound 3671]	118	
3672 (RRGVRRT) [compound 3672]	113	

Compound	Binding affinity, values relative to the RRGVRR sequence (acetylcholine receptor [1])	other results
3673 (RRGVRRY) [compound 3673]	101	
3674 (RRGVRRN) [compound 3674]	105	
3675 (RRGVRRQ) [compound 3675]	105	
3676 (RRGVRRK) [compound 3676]	171	
3677 (RRGVRRR) [compound 3677]	188	
3678 (RRGVRRH) [compound 3678]	154	
3679 (RRGVRRD) [compound 3679]	61	
3680 (RRGVRRE) [compound 3680]	33	
CCCCCCCCCCCCCCCC(=O)N[C@@H](CCCNC(=N)N)C(=O)N[C@@H](CCCNC(=N)N)C(=O)N[C@@H](CCC(N)=O)C(=O)N[C@@H](CCCNC(=N)N)C(=O)N[C@@H](CCCNC(=N)N)C(=O)O [Pal-5mer-73] (Palmitoyl-RRQRR-OH; N-terminus and C-terminus assumed)		inhibition at 1 µM [2]: 100%; cytotoxicity (MTT) [3]: non-toxic
CCCCCCCCCCCCCCCC(=O)N[C@@H](CCCNC(=N)N)C(=O)N[C@@H](CCCCN)C(=O)N[C@@H](CCCNC(=N)N)C(=O)N[C@H](C(=O)N[C@@H](CCCNC(=N)N)C(=O)N[C@@H](CCCNC(=N)N)C(=O)O)[C@@H](C)CC [Pal-6mer-1-43] (Palmitoyl-RKRIRR-OH; N-terminus and C-terminus assumed)		inhibition at 1 µM [2]: 100%; cytotoxicity (MTT) [3]: non-toxic
KGRKSLLR [Espep2-8mer, KGRKSLLR]		Kd (acetylcholine receptor [4]): 3.1 µM; higher affinity compared to Synake (acetylcholine receptor [4]): 740 times
KSLLR [5mer-ND]		Binding affinity (RU) (acetylcholine receptor [1]): 23 RU; binding affinity compared to Synake (acetylcholine receptor [5]): higher binding affinity than Synake
KWRQKR [6mer-2-233]		Binding affinity (acetylcholine receptor [1]; Resonance Units, 6mer-2 Top sequence (Table 12)): 190 Ru; Binding affinity (RU) (acetylcholine receptor [1]): 190 RU; concentration at which acetylcholine receptors were inhibited [2]: 10 µM
RKSLL [5mer-CD]		binding affinity compared to Synake (acetylcholine receptor [5]): slightly lower binding affinity compared to Synake
RKSLLR [Espep2-6mer, RKSLLR]		Kd (acetylcholine receptor [4]): 57 µM; higher affinity compared to Synake (acetylcholine receptor [4]): 40 times; Binding affinity (RU) (acetylcholine receptor [1]): 35 RU; binding affinity compared to Synake (acetylcholine receptor [5]): higher affinity than that of Synake; RU value (acetylcholine receptor [5]; peptide 20 μM): 177 RU
RRGVRR [6mer-1-210]		Binding affinity (acetylcholine receptor [1]; 6mer-1 Top sequence): 184 Ru; Binding affinity (RU) (acetylcholine receptor [1]): 184 RU; concentration at which acetylcholine receptors were inhibited [2]: 10 µM
RSYSR [5mer-311]		Binding affinity (RU) (acetylcholine receptor [1]): 167 RU; Binding affinity (acetylcholine receptor [1]; 5mer Top sequence): 167 Ru; concentration at which acetylcholine receptors were inhibited [2]: 10 µM
RWRYKR [6mer-2-136]		Binding affinity (acetylcholine receptor [1]; 6mer-2 Top sequence): 194 Ru; Binding affinity (RU) (acetylcholine receptor [1]): 194 RU; concentration at which acetylcholine receptors were inhibited [2]: 10 µM
